Reference: patent US9434716B2, “Antigen binding proteins” (Glaxo Group Limited, priority 2011, dated 2016)
Entries after “also recorded” stand apart in the source; their conditions may differ.

Legend:
[1] = system: mice with systemic AA amyloidosis; test: Low dose SAP-E and SAP-K in clearing systemic AA amyloid deposits (Example 17); assay type: in vivo, mouse; details: low doses
Method: AA amyloidosis was induced and confirmed in wild-type C57BL/6 mice as detailed in Example 10 above. After loading the amyloid deposits with human SAP as also detailed in Example 10, groups of mice (n=10 each) were treated with single doses of either 0.5 mg and 1 mg per mouse of the two different antibodies, or 6 repeated doses of 0.15 mg, given at 3 or 4 day intervals. […] All were killed on day 29 for estimation of amyloid load by Congo red staining.

human CRP = target: T1, human CRP (Homo sapiens, UniProt P02741); test: Western blotting against CRP; assay type: binding; details: western blot, 500 ng and 100 ng loaded
T1 sequence (P02741 19-224): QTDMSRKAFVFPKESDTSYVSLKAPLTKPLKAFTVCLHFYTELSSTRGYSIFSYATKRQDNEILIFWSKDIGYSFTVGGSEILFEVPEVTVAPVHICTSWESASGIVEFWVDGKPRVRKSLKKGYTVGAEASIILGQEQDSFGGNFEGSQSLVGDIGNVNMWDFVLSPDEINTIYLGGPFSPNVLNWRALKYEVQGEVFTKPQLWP

native human SAP = target: T2, native human SAP (Homo sapiens, UniProt P02743); test: Double immunodiffusion in agarose gel; assay type: binding; details: isolated pure human SAP and whole human serum
T2 construct: against both isolated pure human SAP and whole human serum; from tissue; host or cells: whole human serum, and isolated pure human SAP
T2 sequence (P02743 20-223): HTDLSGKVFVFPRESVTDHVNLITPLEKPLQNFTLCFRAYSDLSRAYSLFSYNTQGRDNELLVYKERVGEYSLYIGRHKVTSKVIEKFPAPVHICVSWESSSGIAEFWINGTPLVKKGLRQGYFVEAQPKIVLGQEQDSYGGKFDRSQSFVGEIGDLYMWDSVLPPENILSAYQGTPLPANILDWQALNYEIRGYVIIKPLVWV

human SAP [2] = target: T3, human SAP (Homo sapiens, UniProt P02743); test: Biacore (BIAcoreX), human SAP covalently immobilised on the chip; assay type: binding; details: mean and SD of 3 replicate measurements
T3 construct: from tissue; host or cells: natural human SAP, purified
T3 sequence (P02743 20-223): as above

human SAP [3] = target: T3, human SAP; test: Western blotting and fragment epitope mapping (CNBr, chymotrypsin); assay type: binding
Text: This is consistent with the kinetic stability and resistance to denaturation of SAP (Manning, M. and Colón, W. (2004) Biochemistry, 43: 11248-11254).
B, SDS-PAGE analysis of SAP cleaved with CNBr. […] These were precisely confirmed by mass spectrometry. […] C, SDS-PAGE analysis of SAP digested with chymotrypsin. Left panel: Coomassie blue stain; lane 1, untreated control SAP; lane 2, SAP after chymotrypsin digestion, showing the expected major fragments corresponding to residues 1-140 and 145-204. These were precisely confirmed by mass spectrometry. Right panel: Western blot with SAP-E showing intense staining of intact untreated SAP in lanes 1 (500 ng loaded) and 2 (100 ng), and also residual intact SAP in lanes 3 and 4 which contained the chymotrypsin digested SAP at different loadings. Very weak binding of SAP-E to the residue 1-140 fragment is seen only in lane 3 which was most heavily loaded. […] D, Sequence comparison between human SAP (h) and mouse SAP (m) for residues 136-147. Top panel, differences indicated above by residues shown in black in the murine sequence. Bottom panel, position of this extended loop with 140Y at its apex shown in white in the 3D subunit structure of human SAP. The different residues in the murine sequence are shown in black. The grey spheres represent the calcium atoms bound in the ligand binding pocket.

human SAP [4] = target: T3, human SAP; test: Binding of mouse monoclonals to immobilised human SAP in vitro
Text: SAP-E and SAP-K are from two groups of anti-SAP monoclonals, each group having been tested separately for their binding to human SAP in vitro.
(§1) SAP-K was selected from among the 6 different, most avidly binding, mouse IgG2a monoclonals, derived by standard techniques from immunization with purified human SAP and a conventional fusion to produce hybridomas which were cloned by routine methods. […] This was the case regardless of whether the human SAP had been directly immobilised on plastic surfaces by non-specific adherence or by covalent attachment, or by the specific calcium dependent binding of SAP to immobilised ligands, whether amyloid fibrils or the small molecule ligand, phosphoethanolamine. SAP-K also bound well to directly immobilised SAP in the presence or absence of calcium, and if the SAP had previously been complexed with CPHPC and then covalently ‘fixed’ in the decameric SAP-CPHPC complex (Pepys, M. B. et al (2002) Targeted pharmacological depletion of serum amyloid P component for treatment of human amyloidosis. Nature, 417: 254-259; Kolstoe, S. E. et al (2009) Molecular dissection of Alzheimer's disease neuropathology by depletion of serum amyloid P component. Proc. Natl. Acad. Sci. USA, 106: 7619-7623). SAP-E also bound well to human SAP in all these different configurations.

[5] = system: mice with systemic AA amyloidosis; test: SAP-E versus SAP-K in clearing systemic AA amyloid deposits (Example 16); assay type: in vivo, mouse; details: lower doses
Method: AA amyloidosis was induced and confirmed in wild-type C57BL/6 mice as detailed in Example 10 above. After loading the amyloid deposits with human SAP also detailed in Example 10, groups of mice were treated with 3 mg and 1 mg per mouse of the two different antibodies. […] All mice were bled for assay of circulating anti-SAP antibody at days 1, 5 and 15 after dosing with antibody, and all were killed on day 21 for estimation of amyloid load by Congo red staining. All sera were assayed for anti-SAP activity using a robust immunoradiometric assay standardised with purified SAP-E and SAP-K respectively, spiked at known concentrations into normal mouse serum.
Amyloid load was scored by four independent expert observers all blinded to the identity of each tissue examined. The scores of all observers were, as usual highly concordant and for statistical analysis, the total scores of all observers for both spleen and liver for each mouse were summed.

human SAP [6] = target: T3, human SAP; test: Biacore kinetics, human SAP captured on immobilised O-phosphoethanolamine; assay type: binding; details: CM5 chip, calcium; bivalent analyte model; 25° C.; for comparison only, avidity effect
Method: O-phosphoethanolamine was immobilised on a Biacore CM5 chip by primary amine coupling in accordance with the manufacturer's instructions. Human SAP was then captured on the surface in the presence of calcium chloride, in order to replicate in the Biacore system in vitro, the precise orientation of SAP molecules bound to amyloid fibrils in vivo. Anti SAP antibodies were then passed over this surface at 256, 64, 16, 4, 1 nM and a binding sensorgrams obtained. Analysis was carried out at 25° C. using 4% BSA, 10 mM Tris, 140 mM NaCl, 2 mM CaCl2, 0.05% surfactant P20, 0.02% Na N3, pH 8.0 as running buffer. […] Data generated were double referenced with a buffer injection over the human SAP surface and analyzed using the bivalent analyte model in the Biacore T100 evaluation software.

human SAP [7] = target: T3, human SAP; test: Competition ELISA with chimeric anti-SAP mAb; assay type: binding; details: human SAP coated at 1 μg/mL; purified murine mAb
Text: A constant concentration of chimeric anti-SAP mAb was mixed with serial diluted (1:1) amounts of mouse anti-SAP mAbs. Plates were washed and the amount of chimeric antibody bound to the immobilised human SAP was detected using goat anti-human Kappa Light chain peroxidase conjugate (Sigma, A7164). The ELISA was developed using O-phenylenediamine dihydrochloride (OPD) peroxidase substrate (Sigma, P9187).

human SAP [8] = target: T3, human SAP; test: Immunoradiometric assay, human SAP captured by immobilised sheep polyclonal anti-human SAP antibody; assay type: binding; details: all levels of human SAP input; mean of 3 replicates
Text: as §1
Each point is the mean of 3 replicates.

- reaction with isolated pure human CRP (human CRP): did not react at all
- binding to native human SAP in western blotting (human SAP [3]; after agarose gel electrophoresis in physiological buffers): bound
- binding to human SAP in western blotting from reduced SDS-PAGE (human SAP [3]; denatured human SAP): only SAP-E bound
- epitope recognised (human SAP [3]; residues of human SAP, CNBr and chymotrypsin fragments): region 140-158
- binding to immobilised human SAP (human SAP [4]; abundant immobilised SAP, coating solution 100 μg/ml): more binding of SAP-E than SAP-K
- ka (human SAP [6]): 31500 M⁻¹ s⁻¹
- kd (human SAP [6]): 1.51e-08 s⁻¹
- competition with SAP-K chimera (human SAP [7]): no competition
B1: SAP-E: mouse IgG2a monoclonal anti-human SAP antibody, VH SEQ ID NO:7, VL SEQ ID NO:9 (antibody, V domains shown)
VH: QASLQQSGTELVRSGASVKMSCKASGFTFATYNMHWIKQTPGQGLEWIGYIYPGDGNANYNQQFKGKATLTADTSSNTAYMQISSLTSEDSAVYFCARGDFDYDGGYYFDSWGQGTTLTVSS
VL: DIQMTQSPASLSASVGETVTITCRASENIYSYLAWYQQKQGRSPQLLVHNAKTLAEGVPSRVSGSGSGTHFSLKINGLQPEDFGNYYCQHHYGAPLTFGAGTKLELK
- potency in clearing amyloid, SAP-E compared with SAP-K [1]: again apparently more potent than SAP-K
- binding to native human SAP (immunoprecipitation) (native human SAP): bound apparently equally well to native human SAP
- kd (human SAP [2]): 6 ± 4 × 10^−5 sec^−1
- binding to human SAP in vitro (human SAP [4]; compared within the group of monoclonals): strongest binding to SAP, within their groups
- potency in clearing amyloid, SAP-E compared with SAP-K [5]: apparently more potent than SAP-K at the lower doses
- binding to human SAP captured by sheep polyclonal anti-human SAP (human SAP [8]): SAP-E bound better than SAP-K at all levels of human SAP input; also recorded: Substantially more SAP-E than SAP-K bound at all concentrations of human SAP offered
